Experimental data: article PMC5089669, “Biocatalytic Properties and Structural Analysis of Eugenol Oxidase from Rhodococcus jostii RHA1: A Versatile Oxidative Biocatalyst” (Chembiochem, 2016)

Substrate: C=CCc1cc(OC)c(O)c(OC)c1
Experiment: purified protein
Assay type: biochemical, Rhodococcus jostii
Conditions: Tris-HCl 50 mM, pH 7.5, 25 °C, O2 as co-substrate

B1: Eugenol oxidase (EUGO) (Rhodococcus jostii RHA1) (protein)
chain: MTRTLPPGVSDERFDAALQRFRDVVGDKWVLSTADELEAFRDPYPVGAAEANLPSAVVSPESTEQVQDIVRIANEYGIPLSPVSTGKNNGYGGAAPRLSGSVIVKTGERMNRILEVNEKYGYALLEPGVTYFDLYEYLQSHDSGLMLDCPDLGWGSVVGNTLDRGVGYTPYGDHFMWQTGLEVVLPQGEVMRTGMGALPGSDAWQLFPYGFGPFPDGMFTQSNLGIVTKMGIALMQRPPASQSFLITFDKEEDLEQIVDIMLPLRINMAPLQNVPVLRNIFMDAAAVSKRTEWFDGDGPMPAEAIERMKKDLDLGFWNFYGTLYGPPPLIEMYYGMIKEAFGKIPGARFFTHEERDDRGGHVLQDRHKINNGIPSLDELQLLDWVPNGGHIGFSPVSAPDGREAMKQFEMVRNRANEYNKDYAAQFIIGLREMHHVCLFIYDTAIPEAREEILQMTKVLVREAAEAGYGEYRTHNALMDDVMATFNWGDGALLKFHEKIKDALDPNGIIAPGKSGIWSQRFRGQNL
notes: homodimer
Km: 0.8 µM | kcat: 0.49 s⁻¹
